# Patent publication US20100311659A1
# Legend:
# [1] = system: FVIII-4A2 (quadruple mutant combining the A2 mutations 409, 462, 507, 629)
# [2] = system: T1, wild-type FVIII (recombinant human factor VIII with deletion of the B domain)
# T1 sequence: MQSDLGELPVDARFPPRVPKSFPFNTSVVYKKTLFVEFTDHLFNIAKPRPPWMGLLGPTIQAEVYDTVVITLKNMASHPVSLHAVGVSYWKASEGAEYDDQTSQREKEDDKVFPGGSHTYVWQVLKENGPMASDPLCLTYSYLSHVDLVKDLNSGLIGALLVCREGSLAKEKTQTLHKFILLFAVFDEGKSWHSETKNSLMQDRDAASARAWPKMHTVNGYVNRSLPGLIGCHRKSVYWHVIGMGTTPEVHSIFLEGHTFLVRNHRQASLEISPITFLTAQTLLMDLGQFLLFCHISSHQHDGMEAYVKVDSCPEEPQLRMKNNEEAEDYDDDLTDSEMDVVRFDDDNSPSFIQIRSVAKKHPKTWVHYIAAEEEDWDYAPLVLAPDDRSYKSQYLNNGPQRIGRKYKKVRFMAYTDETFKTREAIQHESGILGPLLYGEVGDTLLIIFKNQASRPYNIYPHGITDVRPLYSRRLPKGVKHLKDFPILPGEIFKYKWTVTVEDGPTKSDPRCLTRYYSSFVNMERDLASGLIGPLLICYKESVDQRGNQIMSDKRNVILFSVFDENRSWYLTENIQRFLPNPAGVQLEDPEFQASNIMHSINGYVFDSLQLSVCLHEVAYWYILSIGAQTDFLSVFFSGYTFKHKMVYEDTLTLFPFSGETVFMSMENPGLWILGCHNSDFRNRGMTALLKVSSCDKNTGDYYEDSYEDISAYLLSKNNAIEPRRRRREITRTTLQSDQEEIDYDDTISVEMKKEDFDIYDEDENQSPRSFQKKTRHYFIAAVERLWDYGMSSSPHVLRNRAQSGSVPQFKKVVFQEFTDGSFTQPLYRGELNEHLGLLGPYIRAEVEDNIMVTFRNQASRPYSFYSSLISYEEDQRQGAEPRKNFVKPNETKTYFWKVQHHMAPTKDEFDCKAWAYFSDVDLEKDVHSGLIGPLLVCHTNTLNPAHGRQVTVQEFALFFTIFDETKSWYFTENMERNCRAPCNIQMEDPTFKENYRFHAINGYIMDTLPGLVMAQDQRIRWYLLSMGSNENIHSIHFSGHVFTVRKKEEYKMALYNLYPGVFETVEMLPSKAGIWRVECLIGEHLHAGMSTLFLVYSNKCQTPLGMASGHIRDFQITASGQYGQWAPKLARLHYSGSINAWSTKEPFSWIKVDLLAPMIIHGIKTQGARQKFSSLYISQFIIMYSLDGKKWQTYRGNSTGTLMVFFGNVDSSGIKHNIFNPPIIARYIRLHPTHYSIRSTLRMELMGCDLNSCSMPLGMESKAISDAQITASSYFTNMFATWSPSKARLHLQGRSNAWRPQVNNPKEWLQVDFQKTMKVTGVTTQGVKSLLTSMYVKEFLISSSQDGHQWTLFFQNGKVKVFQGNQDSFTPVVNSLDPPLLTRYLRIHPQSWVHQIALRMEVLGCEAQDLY
substance,measurement,setting,value
Thrombin,activation by thrombin (FXa generation over time),[1],FVIII-4A2 is identically recognized by thrombin as wild-type FVIII with a relative decrease of activity which might be caused by one of the four mutations
same,activation by thrombin (FXa generation over time),[2],FVIII-4A2 is identically recognized by thrombin as wild-type FVIII with a relative decrease of activity which might be caused by one of the four mutations
